From patent US20260176336A1 (MESTAG THERAPEUTICS, published 2026)

B1: Clone 4.2 (bispecific antibody, human IgG1, kappa, L234A L235A)
heavy 1: not shown
heavy 2: QLQLQESGPGLVKPSETLSLTCTVSGGSISSSTYYWGWIRQPPGKGLEWIGSIFYSGNTYYNPSLKSRVTISVDTSKNHFSLKLSSVTAADTAVYYCAREIIEPRPGYFDYWGQGTLVTVSSASTKGPSVFPLAPSSKSTSGGTAALGCLVKDYFPEPVTVSWNSGALTSGVHTFPAVLQSSGLYSLSSVVTVPSSSLGTQTYICNVNHKPSNTKVDKKVEPKSCDKTHTCPPCPAPEAAGGPSVFLFPPKPKDTLMISRTPEVTCVVVDVSHEDPEVKFNWYVDGVEVHNAKTKPREEQYNSTYRVVSVLTVLHQDWLNGKEYKCKVSNKALPAPIEKTISKAKGQPREPQVCTLPPSRDELTKNQVSLSCAVKGFYPSDIAVEWESNGQPENNYKTTPPVLDSDGSFFLVSKLTVDKSRWQQGNVFSCSVMHEALHNHYTQKSLSLSPG
light: not shown
notes: FAP:LTBR 1:1 heterodimer of LTBR VHH (clone 1.7) paired with FAP Fab (clone 3.5), human IgG1 LALA
B2: Clone 4.5 (bispecific antibody, human IgG1, kappa, L234A L235A)
heavy 1: not shown
heavy 2: QLQLQESGPGLVKPSETLSLTCTVSGGSISSSTYYWGWIRQPPGKGLEWIGSIFYSGNTYYNPSLKSRVTISVDTSKNHFSLKLSSVTAADTAVYYCAREIIEPRPGYFDYWGQGTLVTVSSASTKGPSVFPLAPSSKSTSGGTAALGCLVKDYFPEPVTVSWNSGALTSGVHTFPAVLQSSGLYSLSSVVTVPSSSLGTQTYICNVNHKPSNTKVDKKVEPKSCDKTHTCPPCPAPEAAGGPSVFLFPPKPKDTLMISRTPEVTCVVVDVSHEDPEVKFNWYVDGVEVHNAKTKPREEQYNSTYRVVSVLTVLHQDWLNGKEYKCKVSNKALPAPIEKTISKAKGQPREPQVCTLPPSRDELTKNQVSLSCAVKGFYPSDIAVEWESNGQPENNYKTTPPVLDSDGSFFLVSKLTVDKSRWQQGNVFSCSVMHEALHNHYTQKSLSLSPG
light: not shown
notes: FAP:LTBR 2:1 heterodimer of FAP mAb (clone 3.5) with C terminal fused LTBR VHH (clone 1.6), human IgG1 LALA
B3: Clone 4.3 (bispecific antibody, human IgG1, kappa, L234A L235A)
heavy 1: not shown
heavy 2: QVQLVQSGAEVKKPGASVKVSCKASGYTFTGYYMHWVRQAPGQGLEWMGWIYPNTGGVNYAQNFQGRVTMTRDTSISTAYMELSRLRSDDTAVYYCARDDYNKNLDYWGQGTLVTVSSASTKGPSVFPLAPSSKSTSGGTAALGCLVKDYFPEPVTVSWNSGALTSGVHTFPAVLQSSGLYSLSSVVTVPSSSLGTQTYICNVNHKPSNTKVDKKVEPKSCDKTHTCPPCPAPEAAGGPSVFLFPPKPKDTLMISRTPEVTCVVVDVSHEDPEVKFNWYVDGVEVHNAKTKPREEQYNSTYRVVSVLTVLHQDWLNGKEYKCKVSNKALPAPIEKTISKAKGQPREPQVCTLPPSRDELTKNQVSLSCAVKGFYPSDIAVEWESNGQPENNYKTTPPVLDSDGSFFLVSKLTVDKSRWQQGNVFSCSVMHEALHNHYTQKSLSLSPG
light: not shown
notes: FAP:LTBR 1:1 heterodimer of LTBR VHH (clone 1.6) paired with FAP Fab (clone 3.6), human IgG1 LALA
B4: Clone 4.6 (bispecific antibody, human IgG1, kappa, L234A L235A)
heavy 1: not shown
heavy 2: QVQLVQSGAEVKKPGASVKVSCKASGYTFTGYYMHWVRQAPGQGLEWMGWIYPNTGGVNYAQNFQGRVTMTRDTSISTAYMELSRLRSDDTAVYYCARDDYNKNLDYWGQGTLVTVSSASTKGPSVFPLAPSSKSTSGGTAALGCLVKDYFPEPVTVSWNSGALTSGVHTFPAVLQSSGLYSLSSVVTVPSSSLGTQTYICNVNHKPSNTKVDKKVEPKSCDKTHTCPPCPAPEAAGGPSVFLFPPKPKDTLMISRTPEVTCVVVDVSHEDPEVKFNWYVDGVEVHNAKTKPREEQYNSTYRVVSVLTVLHQDWLNGKEYKCKVSNKALPAPIEKTISKAKGQPREPQVCTLPPSRDELTKNQVSLSCAVKGFYPSDIAVEWESNGQPENNYKTTPPVLDSDGSFFLVSKLTVDKSRWQQGNVFSCSVMHEALHNHYTQKSLSLSPG
light: not shown
notes: FAP:LTBR 2:1 heterodimer of FAP mAb (clone 3.6) with C terminal fused LTBR VHH (clone 1.7), human IgG1 LALA
B5: Clone 4.4 (bispecific antibody, human IgG1, kappa, L234A L235A)
heavy 1: not shown
heavy 2: QVQLVQSGAEVKKPGASVKVSCKASGYTFTGYYMHWVRQAPGQGLEWMGWIYPNTGGVNYAQNFQGRVTMTRDTSISTAYMELSRLRSDDTAVYYCARDDYNKNLDYWGQGTLVTVSSASTKGPSVFPLAPSSKSTSGGTAALGCLVKDYFPEPVTVSWNSGALTSGVHTFPAVLQSSGLYSLSSVVTVPSSSLGTQTYICNVNHKPSNTKVDKKVEPKSCDKTHTCPPCPAPEAAGGPSVFLFPPKPKDTLMISRTPEVTCVVVDVSHEDPEVKFNWYVDGVEVHNAKTKPREEQYNSTYRVVSVLTVLHQDWLNGKEYKCKVSNKALPAPIEKTISKAKGQPREPQVCTLPPSRDELTKNQVSLSCAVKGFYPSDIAVEWESNGQPENNYKTTPPVLDSDGSFFLVSKLTVDKSRWQQGNVFSCSVMHEALHNHYTQKSLSLSPG
light: not shown
notes: FAP:LTBR 2:1 heterodimer of FAP mAb (clone 3.6) with C terminal fused LTBR VHH (clone 1.6), human IgG1 LALA

How the values were obtained:
[1] = target: T1, human LTBR endogenously expressed on cells (HepG2, A549, A375, HCC1187, RPMI-7951, primary human breast CAFs) (human, UniProt P36941 31-435); test: cell-based or functional assay
[2] = target: T1, human LTBR endogenously expressed on …; test: cell-based or functional assay; remark: listed apart in the source
[3] = target: T1, human LTBR endogenously expressed on …; test: cell-based or functional assay; remark: listed apart in the source
[4] = target: T1, human LTBR endogenously expressed on …; test: cell-based or functional assay; remark: listed apart in the source
[5] = target: T1, human LTBR endogenously expressed on …; test: cell-based or functional assay; remark: listed apart in the source
[6] = target: T1, human LTBR endogenously expressed on …; test: flow cytometry, A549 cells
Method: (§1) In short, 1×10⁶ cells were resuspended in the FACS buffer (1% BSA, 0.1% Sodium Azide in PBS), and 50 μl was added to each well (5×10⁴ cells/well) of a 96-U bottom plate. The cells were washed once and resuspended in 50 μl/well of FACS buffer containing a 1:3, 11-point series dilutions of constructs 4.1-4.6 and clones 4.8-4.9 followed by 1 h incubation at 4° C. […] Next, cells were washed and resuspended in FACS buffer and read on Beckman Coulter CytoFLEX. The data were analysed using FloJo V10 and GraphPad Prism v9. Clone 4.7 was tested for binding to A375 (LTBR positive cell line) and the HEK293-FAP overexpressing cell line, as described in examples 2.4 and 3.5. The EC50 values can be found in.

[7] = target: T2, human FAP expressed on cells (transfected HEK293; FAP-CHO-K1 recombinant cell line, BPS cat no. 79947) (human, UniProt Q12884 1-760); test: flow cytometry, FAP-CHO-K1 cells
T2 construct: also called HuFAP-HEK293; Hek-FAP
Method: as §1

[8] = target: T3, Biotinylated hLTBR-His-Avitag (Acro, cat no LTR-H82E9-25 µg) (human, UniProt P36941 31-227, biotinylated (Avitag)); test: BLI (Octet), biotinylated LTBR on SA sensor, antibody as analyte
T3 construct: bought protein loaded on SA Streptavidin biosensors
Method: Briefly, Biotinylated hLTBR-His-Avitag (Acro, cat no LTR-H82E9-25 μg) was loaded on SA Streptavidin biosensors (Fortebio) in kinetics buffer (ForteBio) followed by a 2-fold dilution series starting at 50 nM of FAP/LTBR bispecific antibodies. Binding kinetics were studied in a 1× Kinetics buffer where the association was allowed for 100 seconds, followed by dissociation for 300 seconds. Data generated were referenced by subtracting a parallel buffer blank, the baseline was aligned with the y-axis, inter-step correlation by alignment against dissociation was performed, and the data were smoothed by a Savitzky-Golay filter in the data analysis software. The processed data were fitted using a 1:1 Langmuir binding model with R\hat{ }2 as a measurement of fitting accuracy. The KD and R\hat{ }2 values can be found in.

[9] = target: cynomologus recombinant LTBR (Octet, Example 4.8) (cynomolgus (Macaca fascicularis), UniProt P36941 31-227 (human entry), limits assumed); test: BLI (Octet), cyno LTBR immobilised on ARG sensor, antibody at 25 nM
Method: A 2-fold series dilution starting at 50 nM of cynomologus recombinant LTBR was immobilised on the surface of ARG biosensors (Fortebio), followed by FAP/LTBR bispecific at 25 nM. Binding kinetics were studied in a 1× Kinetics buffer where the association was allowed for 180 seconds, followed by dissociation for 100 seconds. Sensor tips were regenerated using ethylene glycol. Data generated were referenced by subtracting a parallel buffer blank, the baseline was aligned with the y-axis, inter-step correlation by alignment against dissociation was performed, and the data were smoothed by a Savitzky-Golay filter in the data analysis software. The processed data were fitted using a 1:1 Langmuir binding model with R\hat{ }2 as a measurement of fitting accuracy. The KD values can be found in.

[10] = target: T4, human FAP (Acro, cat no FAP-H82Q6) (human, UniProt Q12884 26-760); test: BLI (Octet), antibody captured by anti-Fc, FAP as analyte; * value outside instrument specifications
T4 construct: 'FAP is naturally a dimeric antigen'
Method: Binding to recombinant FAP proteins was investigated by Bio-Layer Interferometry (BLI) using the Octet instrument. Using standard amine coupling chemistry, an anti-Fc antibody was immobilised on the surface of ARG biosensors (Fortebio). The FAP/LTBR bispecific antibodies were loaded on the previously coated surface with anti-Fc capture antibody, followed by a 2-fold series dilution starting at 50 nM of either cyno FAP (Acro, cat no FAP-C82Q5) or human FAP (Acro, cat no FAP-H82Q6). Binding kinetics were studied in a 1× Kinetics buffer where the association was allowed for 200 seconds, followed by dissociation for 400 seconds. Sensor tips were regenerated using 10 mM Glycine pH 2.0. Data generated were referenced by subtracting a parallel buffer blank, the baseline was aligned with the y-axis, inter-step correlation by alignment against dissociation was performed, and the data were smoothed by a Savitzky-Golay filter in the data analysis software. The processed data were fitted using a 1:1 Langmuir binding model with R\hat{ }2 as a measurement of fitting accuracy. The Results are summarised in. Avidity was observed as FAP is naturally a dimeric antigen, and the limited detection by Octet with these molecules has been reached. Species cross-reactivity has been confirmed for all test samples.

cynomologus recombinant LTBR (Octet, Example 4.8), sequence (P36941 other isoform, or with tags, fused parts or gaps limits assumed): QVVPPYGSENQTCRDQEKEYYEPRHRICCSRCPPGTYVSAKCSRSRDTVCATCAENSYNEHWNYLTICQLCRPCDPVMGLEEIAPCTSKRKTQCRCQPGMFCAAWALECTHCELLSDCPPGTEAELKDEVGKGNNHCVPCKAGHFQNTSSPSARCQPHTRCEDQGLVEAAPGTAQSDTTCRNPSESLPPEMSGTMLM
T3 sequence (P36941 31-227 limits assumed): as the sequence (P36941 other isoform, or with tags, fused parts or gaps limits assumed) above, with V2A, G7A, R24Q, S45I, D163N, R181K, S184L, S186P counted along it
T1 sequence (P36941 31-435): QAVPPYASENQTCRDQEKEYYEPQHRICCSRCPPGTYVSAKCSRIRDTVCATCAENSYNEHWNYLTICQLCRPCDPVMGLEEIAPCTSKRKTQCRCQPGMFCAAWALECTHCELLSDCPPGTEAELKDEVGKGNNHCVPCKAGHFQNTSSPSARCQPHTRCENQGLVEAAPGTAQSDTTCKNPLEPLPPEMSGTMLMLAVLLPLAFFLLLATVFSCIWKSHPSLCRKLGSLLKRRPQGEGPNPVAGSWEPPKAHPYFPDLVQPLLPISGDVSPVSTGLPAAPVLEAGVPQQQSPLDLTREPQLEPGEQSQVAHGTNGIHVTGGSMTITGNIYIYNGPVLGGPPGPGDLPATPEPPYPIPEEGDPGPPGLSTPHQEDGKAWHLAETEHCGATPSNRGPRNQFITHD

Binder	HepG2 Reporter assay, HepG2:FAP-CHO-K1 Co-culture EC50 [1] [nM]	CCL19 upregulation, HCC1187:CAF Co-culture EC50 [2] [nM]	ICAM1 upregulation in CAFs monoculture assay EC50 [3] [nM]	chemokine (CCL5) induction in RPMI-7951 EC50 [4] [nM]	HCC-1187:RPMI7951 (cis-activation) co-culture assay CCL5 read-out EC50 [5] [nM]	HCC-1187:RPMI7951 (trans-activation) co-culture assay, CCL19 Read-out EC50 [5] [nM]	EC50 [6] [nM]	EC50 [7] [nM]	Kd [8] [nM]	Kd [9] [nM]	Kd [10] [nM]
B1	0.03	0.06	0.019	0.063	0.11	0.16	3.2	0.47	3.2	6.75	0.325
B2	0.04	0.023	0.011	0.018	0.012		29	0.11	6.5	5.22	0.1
B3	0.06	0.09	0.04	0.1	0.12	0.11	6.9	0.8	3.1	5.78	0.192
B4	0.053	0.013	0.01	0.024	0.013			0.33	4.3	17.1	0.0443
B5	0.031	0.054	0.0048	0.028	0.012		45	0.2	4.6	8.3	0.231
